Substitutions are numbered along the chain they refer to.
How the values were obtained:
Test in all cases: binding, other
XAGE1 peptide on HLA = target: T1, XAGE1 peptide on HLA (human)
T1 peptide: ISQTPGINL

LGSN peptide on HLA = target: T2, LGSN peptide on HLA (human)
T2 peptide: ALGETFIRYFV

BRDT peptide on HLA = target: T3, BRDT peptide on HLA (human)
T3 peptide: RLLDVNNQL

ASCL2 peptide on HLA = target: T4, ASCL2 peptide on HLA (human)
T4 peptide: ALSPAERELL

PAEP peptide on HLA [1] = target: T5, PAEP peptide on HLA (human)
T5 peptide: LLDTDYDNFL

PAEP peptide on HLA [2] = target: T6, PAEP peptide on HLA (human)
T6 peptide: MMCQYLARV

NPSR1 peptide on HLA = target: T7, NPSR1 peptide on HLA (human)
T7 peptide: AINPLIYCV

TRPM1 peptide on HLA = target: T8, TRPM1 peptide on HLA (human)
T8 peptide: RLLEKHISL

PIWIL1 peptide on HLA = target: T9, PIWIL1 peptide on HLA (human)
T9 peptide: SLSNRLYYL

KLK4 peptide on HLA = target: T10, KLK4 peptide on HLA (human)
T10 peptide: SIASQCPTA

PAEP peptide on HLA [3] = target: T11, PAEP peptide on HLA (human)
T11 peptide: TLLDTDYDNFL

B1: TCR of SEQ ID NOs 615 and 616 (TCR, V domains shown)
Valpha: QKEVEQNSGPLSVPEGAIASLSCTYSDRGSQSFFWYRQYSGKSPELIMSIYSNGDKEDGRFTAQLNKASQYVSLLIRDSQPSDSATYLCAVGAGGYNKLIFGAGTRLAVHP
Vbeta: NAGVTQTPKFRVLKTGQSMTLQCTQDMNHNYMYWYRQDPGMGLRLIHYSVGEGTTAKGEVPDGYNVSRSTTEDFPLRLLSAAPSQTSVYFCASRREGPLHFGNGTRLTVT
XAGE1 peptide on HLA
  binding result: recognises

B2: TCR of SEQ ID NOs 415 and 416 (TCR, V domains shown)
Valpha: KQEVTQIPAALSVPEGENLVLNCSFTDSAIYNLQWFRQDPGKGLTSLLLIQSSQREQTSGRLNASLDKSSGRSTLYIAASQPGDSATYLCAVRGYQKVTFGTGTKLQVIP
Vbeta: NAGVTQTPKFQVLKTGQSMTLQCAQDMNHEYMSWYRQDPGMGLRLIHYSVGAGITDQGEVPNGYNVSRSTTEDFPLRLLSAAPSQTSVYFCASSPGIGELFFGEGSRLTVL
LGSN peptide on HLA
  binding result: recognises

B3: TCR of SEQ ID NOs 319 and 320 (TCR, V domains shown)
Valpha: KQEVTQIPVALSVPEGENLVLNCSFTDSAIYNLQWFRQDPGKGLTSLLLIQSSQREQTSGRLNASLDKSSGRSTLYIAASQPGDSATYLCAVKGGANNLFFGTGTRLTVIP
Vbeta: NAGVTQTPKFRILKIGQSMTLQCTQDMNHNYMYWYRQDPGMGLKLIYYSVGAGITDKGEVPNGYNVSRSTTEDFPLRLLSAAPSQTSVYFCASRGDGDRSPLHFGNGTRLTVT
BRDT peptide on HLA
  binding result: recognises

B4: TCR of SEQ ID NOs 321 and 322 (TCR, V domains shown)
Valpha: B3 Valpha with V9A, K93R, A96Y, N97Q, N98K, L99V, F100T, R106K, T108Q
Vbeta: B3 Vbeta with R11Q, I12V, I15T, T24A, Y31S, K44R, Y47H, K57Q
BRDT peptide on HLA
  binding result: recognises

B5: TCR of SEQ ID NOs 299 and 300 (TCR, V domains shown)
Valpha: QKEVEQNSGPLSVPEGAIASLNCTYSDRGSQSFFWYRQYSGKSPELIMSIYSNGDKEDGRFTAQLNKASQYVSLLIRDSQPSDSATYLCAVDTGRRALTFGSGTRLQVQP
Vbeta: NAGVTQTPKFQVLKTGQSMTLLCAQDMNHNSMYWYRQDPGMGLRLIYYSASEGTTDKGEVPNGYNVSRLNKREFSLRLESAAPSQTSVYFCASSVGGTYGYTFGSGTRLTVV
ASCL2 peptide on HLA
  binding result: recognises

B6: TCR of SEQ ID NOs 469 and 470 (TCR, V domains shown)
Valpha: B5 Valpha with D92R, T93R, G94N, R95T, R96D, A97K, T99I, S102T, Q109F
Vbeta: DTGVSQNPRHKITKRGQNVTFRCDPISEHNRLYWYRQTLGQGPEFLTYFQNEAQLEKSRLLSDRFSAERPKGSFSTLEIQRTEQGDSAMYLCASSPRDRSPYGYTFGSGTRLTVV
PAEP peptide on HLA [1]
  binding result: recognises

B7: TCR of SEQ ID NOs 477 and 478 (TCR, V domains shown)
Valpha: B5 Valpha with D92S, T93G, G94S, R95A, A97Q, R105Q, Q107T, Q109L
Vbeta: DGGITQSPKYLFRKEGQNVTLSCEQNLNHDAMYWYRQDPGQGLRLIYYSQIVNDFQKGDIAEGYSVSREKKESFPLTVTSAQKNPTAFYLCASSPFADDSYGYTFGSGTRLTVV
PAEP peptide on HLA [2]
  binding result: recognises

B8: TCR of SEQ ID NOs 301 and 302 (TCR, V domains shown)
Valpha: B5 Valpha
Vbeta: B5 Vbeta with L22Q, V95T, T98S
ASCL2 peptide on HLA
  binding result: recognises

B9: TCR of SEQ ID NOs 437 and 438 (TCR, V domains shown)
Valpha: B5 Valpha with D92G, T93G, R95A, R96D, A97G, S102K, R105H, Q107I, V108I
Vbeta: NAGVTQTPKFRILKIGQSMTLQCTQDMNHNYMYWYRQDPGMGLKLIYYSVGAGITDKGEVPNGYNVSRSTTEDFPLRLELAAPSQTSVYFCASSYGNLGTEAFFGQGTRLTVV
NPSR1 peptide on HLA
  binding result: recognises

B10: TCR of SEQ ID NOs 613 and 614 (TCR, V domains shown)
Valpha: B5 Valpha with D92N, T93E, R95Y, R96Q, A97K, L98V, S102I, R105K, Q109I
Vbeta: NAGVTQTPKFQVLKTGQSMTLQCAQDMNHEYMYWYRQDPGMGLRLIHYSVGAGITDQGEVPNGYNVSRSTTEDFPLRLLSAAPSQTSVYFCASSRDYDYGQYFGPGTRLTVT
XAGE1 peptide on HLA
  binding result: recognises

B11: TCR of SEQ ID NOs 475 and 476 (TCR, V domains shown)
Valpha: QKEVEQNSGPLSVPEGAIASLNCTYSDRGSQSFFWYRQYSGKSPELIMFIYSNGDKEDGRFTAQLNKASQYVSLLIRDSQPSDSATYLCAVDGSYIPTFGRGTSLIVHP
Vbeta: NAGVTQTPKFRVLKTGQSMTLLCAQDMNHEYMYWYRQDPGMGLRLIHYSVGEGTTAKGEVPDGYNVSRLKKQNFLLGLESAAPSQTSVYFCASSSGGADTGELFFGEGSRLTVL
PAEP peptide on HLA [2]
  binding result: recognises

B12: TCR of SEQ ID NOs 607 and 608 (TCR, V domains shown)
Valpha: KQEVTQIPAALSVPEGENLVLNCSFTDSAIYNLQWFRQDPGKGLTSLLLIQSSQREQTSGRLNASLDKSSGRSTLYIAASQPGDSATYLCAVRGMNTGFQKLVFGTGTRLLVSP
Vbeta: NAGVTQTPKFQVLKTGQSMTLQCAQDMNHEYMSWYRQDPGMGLRLIHYSVGAGITDQGEVPNGYNVSRSTTEDFPLRLLSAAPSQTSVYFCASSPGVTSTEAFFGQGTRLTVV
TRPM1 peptide on HLA
  binding result: recognises

B13: TCR of SEQ ID NOs 497 and 498 (TCR, V domains shown)
Valpha: KQEVTQIPAALSVPEGENLVLNCSFTDSAIYNLQWFRQDPGKGLTSLLLIQSSQREQTSGRLNASLDKSSGRSTLYIAASQPGDSATYLCAARYNFNKFYFGSGTKLNVKP
Vbeta: NAGVTQTPKFQVLKTGQSMTLLCAQDMNHEYMYWYRQDPGMGLRLIHYSVGEGTTAKGEVPDGYNVSRSTTEDFPLRLLSAAPSQTSVYFCASSYTPGPSHEQYFGPGTRLTVT
PIWIL1 peptide on HLA
  binding result: recognises

B14: TCR of SEQ ID NOs 471 and 472 (TCR, V domains shown)
Valpha: KQEVTQIPAALSVPEGENLVLNCSFTDSAIYNLQWFRQDPGKGLTSLLLIQSSQREQTSGRLNASLDKSSGRSTLYIAASQPGDSATYLCAVSPINDYKLSFGAGTTVTVRA
Vbeta: KAGVTQTPRYLIKTRGQQVTLSCSPISGHRSVSWYQQTPGQGLQFLFEYFSETQRNKGNFPGRFSGRQFSNSRSEMNVSTLELGDSALYLCASSLVGTGGSPLHFGNGTRLTVT
PAEP peptide on HLA [1]
  binding result: recognises

B15: TCR of SEQ ID NOs 403 and 404 (TCR, V domains shown)
Valpha: KQEVTQIPAALSVPEGENLVLNCSFTDSAIYNLQWFRQDPGKGLTSLLLIQSSQREQTSGRLNASLDKSSGRSTLYIAASQPGDSATYLCAVRPRGDSWGKLQFGAGTQVVVTP
Vbeta: NAGVTQTPKFQVLKTGQSMTLQCAQDMNHEYMSWYRQDPGMGLRLIHYSVGAGITDQGEVPNGYNVSRSTTEDFPLRLLSAAPSQTSVYFCASSPTGYGEAFFGQGTRLTVV
KLK4 peptide on HLA
  binding result: recognises

B16: TCR of SEQ ID NOs 441 and 442 (TCR, V domains shown)
Valpha: QKEVEQNSGPLSVPEGAIASLNCTYSDRGSQSFFWYRQYSGKSPELIMSIYSNGDKEDGRFTAQLNKASQYVSLLIRDSQPSDSATYLCAVNDSGGYQKVTFGTGTKLQVIP
Vbeta: B15 Vbeta with P95Y, T96S, G97P, Y98G, G99N, E100G, A101Y, F102T, Q105S
NPSR1 peptide on HLA
  binding result: recognises

B17: TCR of SEQ ID NOs 401 and 402 (TCR, V domains shown)
Valpha: KQEVTQIPAALSVPEGENLVLNCSFTDSAIYNLQWFRQDPGKGLTSLLLIQSSQREQTSGRLNASLDKSSGRSTLYIAASQPGDSATYLCAVSPPAAGNKLTFGGGTRVLVKP
Vbeta: NAGVTQTPKFRILKIGQSMTLQCAQDMNHNYMYWYRQDPGMGLKLIYYSVGAGITDKGEVPNGYNVSRSTTEDFPLRLELAAPSQTSVYFCASSLTWTGGFGYTFGSGTRLTVV
KLK4 peptide on HLA
  binding result: recognises

B18: TCR of SEQ ID NOs 605 and 606 (TCR, V domains shown)
Valpha: KQEVTQIPAALSVPEGENLVLNCSFTDSAIYNLQWFRQDPGKGLTSLLLIQSSQREQTSGRLNASLDKSSGRSTLYIAASQPGDSATYLCAAATRNNTGKLIFGQGTTLQVKP
Vbeta: NAGVTQTPKFRILKIGQSMTLQCTQDMNHNYMYWYRQDPGMGLKLIYYSVGAGITDKGEVPNGYNVSRSTTEDFPLRLELAAPSQTSVYFCASSKSDLGGYTFGSGTRLTVV
TRPM1 peptide on HLA
  binding result: recognises

B19: TCR of SEQ ID NOs 483 and 484 (TCR, V domains shown)
Valpha: ELKVEQNPLFLSMQEGKNYTIYCNYSTTSDRLYWYRQDPGKSLESLFVLLSNGAVKQEGRLMASLDTKARLSTLHITAAVHDLSATYFCAVGAYSGAGSYQLTFGKGTKLSVIP
Vbeta: NAGVIQNPRHLVRRRGQEARLRCSPMKGHSHVYWYRQLPEEGLKFMVYLQKENIIDESGMPKERFSAEFPKEGPSILRIQQVVRGDSAAYFCASSKYPAGEANEKLFFGSGTQLSVL
PAEP peptide on HLA [3]
  binding result: recognises

B20: TCR of SEQ ID NOs 481 and 482 (TCR, V domains shown)
Valpha: KQEVTQIPAALSVPEGENLVLNCSFTDSAIYNLQWFRQDPGKGLTSLLLIQSSQREQTSGRLNASLDKSSGRSTLYIAASQPGDSATYLCAATDSWGKLQFGAGTQVVVTP
Vbeta: DTGVSQNPRHKITKRGQNVTFRCDPISEHNRLYWYRQTLGQGPEFLTYFRNEAQLEKSRLLSDRFSAERPKGSFSTLEIQRTEQGDSAMYLCASSLFSRGTNYGYTFGSGTRLTVV
PAEP peptide on HLA [3]
  binding result: recognises

B21: TCR of SEQ ID NOs 417 and 418 (TCR, V domains shown)
Valpha: KQEVTQIPAALSVPEGENLVLNCSFTDSAIYNLQWFRQDPGKGLTSLLLIQSSQREQTSGRLNASLDKSSGRSTLYIAASQPGDSATYLCAVRAQGGSEKLVFGKGTKLTVNP
Vbeta: NAGVTQTPKFRILKIGQSMTLQCTQDMNHNYMYWYRQDPGMGLKLIYYSVGAGITDKGEVPNGYNVSRSTTEDFPLRLELAAPSQTSVYFCASSYLGQDPEGAEAFFGQGTRLTVV
LGSN peptide on HLA
  binding result: recognises

B22: TCR of SEQ ID NOs 609 and 610 (TCR, V domains shown)
Valpha: B21 Valpha with R93P
Vbeta: NAGVTQTPKFQVLKTGQSMTLQCAQDMNHEYMSWYRQDPGMGLKLIYYSVGAGITDKGEVPNGYNVSRSTTEDFPLRLESAAPSQTSVYFCASTESPYYGYTFGSGTRLTVV
TRPM1 peptide on HLA
  binding result: recognises

Source: patent US20230346885A1 (published 2023)
